From patent publication US20260022175A1 (Chugai, published 2026)
Changes are numbered by the printed parent chain.

B1: H240-Kn456/L73-k0//H240-Hl446/L73-k0 (antibody, human IgG1, kappa)
heavy 1: QDQLVQSGAEVKKPGASVKVSCKASGFNIKDTYIQWVRQAPGQGLEWMGRIDPLRKQTKYREKFEGRVTITADTSTNTAYMELSSLRSEDTAVYYCVRSGREFDYWGQGTLVTVSSASTKGPSVFPLAPSSKSTSGGTAALGCLVKDYFPEPVTVSWNSGALTSGVHTFPAVLQSSGLYSLSSVVTVPSSSLGTQTYICNVNHKPSNTKVDKKVEPKSCDKTHTCPPCPAPEFQWGPMVFLFPPKPKDVLMISRTPEVTCVVVDVSDEEPEVKFNWYVDGVEVHNAKTKPREEQYNATYRVVSVLPVLHQDWLNGKEYKCKVSNKALPMPEEKTISKAKGQPREPQVCTLPPSRDELTKNQVSLWCLVKGFYPSDIAVEWESNGQPENNYKTTPPVLDSDGSFFLYSKLTVDKSRWQQGNVFSCSVMHEALHNHYTQKSLSLSP
heavy 2: QDQLVQSGAEVKKPGASVKVSCKASGFNIKDTYIQWVRQAPGQGLEWMGRIDPLRKQTKYREKFEGRVTITADTSTNTAYMELSSLRSEDTAVYYCVRSGREFDYWGQGTLVTVSSASTKGPSVFPLAPSSKSTSGGTAALGCLVKDYFPEPVTVSWNSGALTSGVHTFPAVLQSSGLYSLSSVVTVPSSSLGTQTYICNVNHKPSNTKVDKKVEPKSCDKTHTCPPCPAPELLAGPSVFLFPPKPKDVLMISRTPEVTCVVVDVSHEEPEVKFNWYVDGVEVHNAKTKPREEQYNATYRVVSVLPVLHQDWLNGKEYKCKVSNDALPMPEEETISKAKGQPREPQVYTLPPSRCELTKNQVSLSCAVKGFYPSDIAVEWESNGQPENNYKTTPPVLDSDGSFFLVSKLTVDKSRWQQGNVFSCSVMHEALHNHYTQKSLSLSP
light: DIQMTQSPSSLSASVGDRVTITCRASQDIHKYIAWYQQKPGQAPRLLIQYTSTLQPGVPSRFSGSGSGTDYTFTISSLQPEDIATYYCLQYEQLRTFGGGTKVEIKRTVAAPSVFIFPPSDEQLKSGTASVVCLLNNFYPREAKVQWKVDNALQSGNSQESVTEQDSKDSTYSLSSTLTLSKADYEKHKVYACEVTHQGLSSPVTKSFNRGEC
notes: also called EGL-ART4; ART4
B2: H240-Kn462/L73-k0//H240-Hl445/L73-k0 (antibody, human IgG1, kappa)
heavy 1: B1 heavy 1 with K325D, M329A, E331I
heavy 2: B1 heavy 2 with M329K, E331D
light: B1 light
notes: also called EGL-ART6; ART6
B3: H240-Kn498/L73-k0//H240-Hl518/L73-k0 (antibody, human IgG1, kappa)
heavy 1: B1 heavy 1 with E331I
heavy 2: B1 heavy 2 with A235G, E331I
light: B1 light
notes: also called EGL-ART12; ART12

The binders below were run against T1, human FcγRIIb extracellular domain (human, UniProt P31994 43-217) (assay: SPR Biacore 8K+, antibody captured, FcγR as analyte, steady state affinity model).
T1 construct: extracellular domain; also called hFcγR IIb
T1 sequence (looked up): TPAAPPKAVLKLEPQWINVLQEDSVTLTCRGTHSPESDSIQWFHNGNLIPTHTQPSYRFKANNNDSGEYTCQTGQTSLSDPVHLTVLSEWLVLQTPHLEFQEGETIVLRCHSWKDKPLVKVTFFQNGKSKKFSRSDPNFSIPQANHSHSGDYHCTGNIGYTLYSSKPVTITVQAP

Binder | Kd
B1 | 11700 nM
B2 | 2920 nM
B3 | 22100 nM

Each binder was assayed against T2, human FcγRIIIa F extracellular domain (human, UniProt P08637 17-208) (assay: SPR Biacore 8K+, antibody captured, FcγR as analyte, 1:1 Langmuir model;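 also: antibodies captured on a streptavidin chip through a biotinylated anti-human Fab kappa reagent, with FcγR extracellular domains injected in pH 7.4 phosphate buffer at 25 °C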).
T2 construct: extracellular domain; also called hFcγR IIIa F
T2 sequence (P08637 17-208): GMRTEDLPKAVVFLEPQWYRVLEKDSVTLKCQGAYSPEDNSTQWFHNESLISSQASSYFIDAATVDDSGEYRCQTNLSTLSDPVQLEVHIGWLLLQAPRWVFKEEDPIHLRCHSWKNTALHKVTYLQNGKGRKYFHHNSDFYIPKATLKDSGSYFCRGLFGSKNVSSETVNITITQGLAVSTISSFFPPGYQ

Binder | Kd
B1 | 1.17 nM
B2 | 3 nM
B3 | 5.12 nM

The binders below were run against T3, human FcγRIIIa V extracellular domain (human, UniProt P08637 17-208) in the same assay as above.
T3 construct: extracellular domain; also called hFcγR IIIa V
T3 sequence (P08637 17-208 F176V limits assumed): as the sequence (P08637 17-208) above, with F160V counted along it

Binder | Kd
B1 | 0.775 nM
B2 | 1.11 nM
B3 | 2.27 nM

What follows are binders tested against T4, human FcγRIIa R extracellular domain (human, UniProt P12318 34-217) in the same assay as above.
T4 construct: extracellular domain; also called hFcγR IIa R
T4 sequence (looked up): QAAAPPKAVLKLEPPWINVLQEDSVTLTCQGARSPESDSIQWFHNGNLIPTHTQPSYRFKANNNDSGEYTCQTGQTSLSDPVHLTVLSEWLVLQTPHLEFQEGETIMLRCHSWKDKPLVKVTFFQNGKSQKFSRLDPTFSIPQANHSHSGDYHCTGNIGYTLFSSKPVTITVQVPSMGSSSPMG

Binder | Kd
B1 | 518 nM
B2 | 68.9 nM
B3 | 1720 nM

These binders were tested against T5, human FcγRIIa H extracellular domain (human, UniProt P12318 34-217) in the same assay as above.
T5 construct: extracellular domain; also called hFcγR IIa H
T5 sequence (looked up): T4 sequence (looked up) with R134H

Binder | Kd
B1 | 179 nM
B2 | 9.52 nM
B3 | 366 nM

What follows are binders tested against T6, human FcγRIa extracellular domain (human, UniProt P12314 16-292) in the same assay as above.
T6 construct: extracellular domain; also called hFcγR Ia; hFcγRIa
T6 sequence (P12314 16-292): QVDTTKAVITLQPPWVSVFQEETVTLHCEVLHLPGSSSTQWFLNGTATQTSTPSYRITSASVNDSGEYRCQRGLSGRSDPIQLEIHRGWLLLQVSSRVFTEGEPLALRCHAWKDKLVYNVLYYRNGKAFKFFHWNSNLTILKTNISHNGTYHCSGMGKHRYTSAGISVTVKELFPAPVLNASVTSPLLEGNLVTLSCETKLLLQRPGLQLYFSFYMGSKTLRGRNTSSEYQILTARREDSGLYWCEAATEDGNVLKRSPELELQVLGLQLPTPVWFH

Binder | Kd
B1 | 0.0305 nM
B2 | 0.0737 nM
B3 | 0.0261 nM

The binders below were run against T2, human FcγRIIIa F extracellular domain (assay: SPR Biacore 8K+; KD for FcγRIIb divided by KD for this FcγR;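 also: antibodies captured on an anti-human Fab kappa SA chip with soluble human FcγR ectodomains flowed over, FcγRIIb KD from steady-state fit, other FcγR KD from Langmuir model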).

Binder | A/I ratio (KD for FcγRIIb divided by KD for each FcγR)
B1 | 9940
B2 | 976
B3 | 4310

These binders were tested against T3, human FcγRIIIa V extracellular domain in the same assay as above.

Binder | A/I ratio (KD for FcγRIIb divided by KD for each FcγR)
B1 | 15000
B2 | 2630
B3 | 9720

The binders below were run against T4, human FcγRIIa R extracellular domain in the same assay as above.

Binder | A/I ratio (KD for FcγRIIb divided by KD for each FcγR)
B1 | 22.5
B2 | 42.4
B3 | 12.8

The binders below were run against T5, human FcγRIIa H extracellular domain in the same assay as above.

Binder | A/I ratio (KD for FcγRIIb divided by KD for each FcγR)
B1 | 65.2
B2 | 307
B3 | 60.3

What follows are binders tested against T7, hFcγRIIaH on hFcγRIIaH-expressing Jurkat cells (human, UniProt P12318 34-317) (assay: cell-based or functional assay).
T7 sequence (looked up): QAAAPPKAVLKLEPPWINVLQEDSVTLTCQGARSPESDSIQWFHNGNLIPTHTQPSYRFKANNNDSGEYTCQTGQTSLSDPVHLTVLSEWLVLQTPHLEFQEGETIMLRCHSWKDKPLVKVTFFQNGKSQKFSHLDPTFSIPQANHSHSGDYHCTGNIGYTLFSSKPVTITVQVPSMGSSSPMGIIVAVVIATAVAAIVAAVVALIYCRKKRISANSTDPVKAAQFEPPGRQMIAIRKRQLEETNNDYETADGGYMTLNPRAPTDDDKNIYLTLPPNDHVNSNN

Binder | EC50 value (hFcγRIIaH ADCP Reporter Bioassay, Hepa1-6/hEREG target cells)
B1 | 0.0432 µg/mL
B2 | 0.0192 µg/mL
B3 | 0.085 µg/mL

Each binder was assayed against hFcγRIIIaV on hFcγRIIIaV-expressing Jurkat cells (human, UniProt P08637 17-254) (assay: cell-based or functional assay).
Chain of hFcγRIIIaV on hFcγRIIIaV-expressing Jurkat cells (P08637 17-254, form in doubt): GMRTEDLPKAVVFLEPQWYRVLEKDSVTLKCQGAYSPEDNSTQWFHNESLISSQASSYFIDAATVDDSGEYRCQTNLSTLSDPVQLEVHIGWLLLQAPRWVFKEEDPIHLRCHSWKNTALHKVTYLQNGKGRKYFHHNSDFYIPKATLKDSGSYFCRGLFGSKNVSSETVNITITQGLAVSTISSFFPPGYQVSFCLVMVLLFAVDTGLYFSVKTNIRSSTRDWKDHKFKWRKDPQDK

Binder | EC50 value (hFcγRIIIaV ADCC Reporter Bioassay, Hepa1-6/hEREG target cells)
B1 | 0.000789 µg/mL
B2 | 0.0015 µg/mL
B3 | 0.000304 µg/mL

The binders below were run against T2, human FcγRIIIa F extracellular domain (assay: SPR Biacore 8K+; KD of G1d divided by KD of this antibody;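 also: antibodies captured on an anti-Fab-kappa streptavidin chip, soluble FcγR ectodomains flowed over, KD by steady-state fit for FcγRIIb and Langmuir kinetic model for the other receptors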).

Binder | Relative value to KD between G1d and hFcgRs
B1 | 2520
B2 | 987
B3 | 578

What follows are binders tested against T3, human FcγRIIIa V extracellular domain in the same assay as above.

Binder | Relative value to KD between G1d and hFcgRs
B1 | 462
B2 | 322
B3 | 158

These binders were tested against T4, human FcγRIIa R extracellular domain in the same assay as above.

Binder | Relative value to KD between G1d and hFcgRs
B1 | 3.2
B2 | 24.1
B3 | 1

What follows are binders tested against T5, human FcγRIIa H extracellular domain in the same assay as above.

Binder | Relative value to KD between G1d and hFcgRs
B1 | 6.3
B2 | 118
B3 | 3.1

Each binder was assayed against T1, human FcγRIIb extracellular domain in the same assay as above.

Binder | Relative value to KD between G1d and hFcgRs
B1 | 0.9
B2 | 3.4
B3 | 0.5

These binders were tested against T6, human FcγRIa extracellular domain in the same assay as above.

Binder | Relative value to KD between G1d and hFcgRs
B1 | 2.9
B2 | 1.2
B3 | 3.4
